Assay results reported in US20040142379A1 (CARLSBERG RESEARCH LABORATORY, published 2004).
Each block holds one binder with its values, some of them ahead of it. Positions of bridges follow the written chain, without caps; N, C: chain ends. Non-standard residues stand in square brackets, D forms with d. Primed or numbered codes have the meaning given here. No end group written: not given here. T(Sa)″ = not defined here

Tests used:
Assay in all cases: on-bead capture from E. coli membrane protein extract; tryptic digest, MALDI peptide mass fingerprint
Biotin synthetase = target: T1, Biotin synthetase (Escherichia coli, UniProt P12996 1-346)
T1 sequence (looked up): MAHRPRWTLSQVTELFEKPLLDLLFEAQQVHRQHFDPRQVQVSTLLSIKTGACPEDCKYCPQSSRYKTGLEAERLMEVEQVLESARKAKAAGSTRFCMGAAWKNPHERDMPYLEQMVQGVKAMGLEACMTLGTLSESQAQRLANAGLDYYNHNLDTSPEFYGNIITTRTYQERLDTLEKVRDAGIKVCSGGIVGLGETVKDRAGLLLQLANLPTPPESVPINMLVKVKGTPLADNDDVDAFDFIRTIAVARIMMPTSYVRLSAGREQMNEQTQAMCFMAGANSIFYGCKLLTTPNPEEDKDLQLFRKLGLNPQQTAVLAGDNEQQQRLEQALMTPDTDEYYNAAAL

[1] = target: UDP-glucose dehydrogenase (Escherichia coli, UniProt P76373 1-388)
[2] = target: T2, Mannose-1-phosphate guanyl transferase (Escherichia coli, UniProt P24174 1-478)
T2 sequence (looked up): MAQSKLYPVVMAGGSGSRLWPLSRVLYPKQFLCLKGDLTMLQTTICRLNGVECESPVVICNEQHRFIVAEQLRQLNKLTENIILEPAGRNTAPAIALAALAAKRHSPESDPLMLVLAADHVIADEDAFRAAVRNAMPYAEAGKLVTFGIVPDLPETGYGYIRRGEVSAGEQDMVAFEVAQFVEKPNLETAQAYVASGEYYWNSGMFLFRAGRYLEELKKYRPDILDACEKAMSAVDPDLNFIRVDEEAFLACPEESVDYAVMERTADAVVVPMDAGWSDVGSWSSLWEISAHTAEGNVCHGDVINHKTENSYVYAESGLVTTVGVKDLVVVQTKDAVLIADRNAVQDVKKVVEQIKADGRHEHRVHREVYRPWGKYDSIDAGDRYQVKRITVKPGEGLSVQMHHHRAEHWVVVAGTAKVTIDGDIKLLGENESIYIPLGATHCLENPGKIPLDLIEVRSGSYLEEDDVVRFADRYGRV

[3] = target: isopropyl malate dehydrogenase (Escherichia coli, UniProt P30125 2-363)
Chain of isopropyl malate dehydrogenase (P30125 2-363 limits assumed): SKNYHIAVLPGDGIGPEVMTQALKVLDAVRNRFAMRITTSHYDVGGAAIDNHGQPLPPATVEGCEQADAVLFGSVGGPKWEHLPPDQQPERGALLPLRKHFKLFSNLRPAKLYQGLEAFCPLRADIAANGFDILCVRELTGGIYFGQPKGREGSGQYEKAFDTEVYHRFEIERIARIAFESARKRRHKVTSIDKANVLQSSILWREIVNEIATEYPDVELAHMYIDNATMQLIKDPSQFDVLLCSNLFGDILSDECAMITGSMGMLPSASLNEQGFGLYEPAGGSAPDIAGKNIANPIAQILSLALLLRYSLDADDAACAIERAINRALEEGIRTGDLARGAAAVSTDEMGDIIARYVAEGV

[4] = target: T3, NAD-dependent 7-alpha-hydroxysteriod dehydrogenase (Escherichia coli, UniProt P0AET8 1-255)
T3 sequence (looked up): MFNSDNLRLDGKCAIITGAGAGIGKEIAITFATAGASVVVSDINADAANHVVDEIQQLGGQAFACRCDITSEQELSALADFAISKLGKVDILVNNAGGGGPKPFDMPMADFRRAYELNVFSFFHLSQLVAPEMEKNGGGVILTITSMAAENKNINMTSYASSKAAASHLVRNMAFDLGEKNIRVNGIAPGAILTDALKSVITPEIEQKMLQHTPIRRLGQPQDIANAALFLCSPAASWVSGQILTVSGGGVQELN

citrate synthetase = target: T4, citrate synthetase (Escherichia coli, UniProt P0ABH7 1-427)
T4 sequence (looked up): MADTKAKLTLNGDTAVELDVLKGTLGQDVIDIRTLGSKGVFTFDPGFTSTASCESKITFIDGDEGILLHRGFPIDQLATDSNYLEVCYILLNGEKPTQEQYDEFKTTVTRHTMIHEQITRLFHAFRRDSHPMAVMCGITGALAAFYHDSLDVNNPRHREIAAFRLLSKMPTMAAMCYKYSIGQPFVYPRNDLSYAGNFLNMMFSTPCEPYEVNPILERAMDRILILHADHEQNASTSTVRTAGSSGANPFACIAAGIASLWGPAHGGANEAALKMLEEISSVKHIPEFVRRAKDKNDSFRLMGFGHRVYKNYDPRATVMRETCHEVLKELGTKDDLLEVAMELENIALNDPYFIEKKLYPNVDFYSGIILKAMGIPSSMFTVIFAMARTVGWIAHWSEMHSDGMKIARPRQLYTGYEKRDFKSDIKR

[5] = target: T5, glutamine tRNA synthetase (Escherichia coli, UniProt P00962 2-554)
T5 sequence (looked up): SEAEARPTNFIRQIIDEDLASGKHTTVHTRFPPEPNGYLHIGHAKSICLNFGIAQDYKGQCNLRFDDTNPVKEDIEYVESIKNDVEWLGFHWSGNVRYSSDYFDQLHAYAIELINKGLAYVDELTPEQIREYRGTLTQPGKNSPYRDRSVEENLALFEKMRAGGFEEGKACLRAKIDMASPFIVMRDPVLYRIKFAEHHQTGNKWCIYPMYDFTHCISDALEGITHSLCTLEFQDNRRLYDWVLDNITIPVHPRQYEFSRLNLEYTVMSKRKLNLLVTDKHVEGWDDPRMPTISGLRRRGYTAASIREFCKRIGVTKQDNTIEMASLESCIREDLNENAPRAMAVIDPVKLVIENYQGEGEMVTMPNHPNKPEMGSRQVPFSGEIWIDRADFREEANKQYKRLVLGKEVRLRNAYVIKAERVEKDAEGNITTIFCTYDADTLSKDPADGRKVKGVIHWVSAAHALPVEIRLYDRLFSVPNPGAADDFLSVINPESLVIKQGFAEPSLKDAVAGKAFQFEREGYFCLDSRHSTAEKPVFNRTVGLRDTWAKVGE

binding result (Biotin synthetase): binds
binding result [1]: binds
B1: T(Sa)-Y-S-M-P (peptide)
peptide: [T(Sa)″]YSMP
modifications: lactam N-1; reading uncertain; also: printed as T(Sa)-Y-S-M-P
notes: Library 2 ligand, resynthesised on PEGA4000 resin bead

binding result [2]: binds
binding result [3]: binds
B2: T(Sa)-H-W-H-I (peptide)
peptide: [T(Sa)″]HWHI
modifications: lactam N-1; reading uncertain; also: printed as T(Sa)-H-W-H-I
notes: as for B1

binding result [4]: binds
binding result (citrate synthetase): binds
B3: T(Sa)-L-S-W-W (peptide)
peptide: [T(Sa)″]LSWW
modifications: lactam N-1; reading uncertain; also: printed as T(Sa)-L-S-W-W
notes: as for B1

binding result [5]: binds
B4: T(Sa)-G-V-F-L (peptide)
peptide: [T(Sa)″]GVFL
modifications: lactam N-1; reading uncertain; also: printed as T(Sa)-G-V-F-L
notes: as for B1
